Reference: patent US20030088057

Key:
histone 2B = histone 2B (UniProt P62808)
histone 4 = histone 4 (UniProt P62803)
myelin basic protein = myelin basic protein (UniProt P02687)
rat prolactin = rat prolactin (UniProt P01237)
Chain of rat prolactin (P01237 30-226): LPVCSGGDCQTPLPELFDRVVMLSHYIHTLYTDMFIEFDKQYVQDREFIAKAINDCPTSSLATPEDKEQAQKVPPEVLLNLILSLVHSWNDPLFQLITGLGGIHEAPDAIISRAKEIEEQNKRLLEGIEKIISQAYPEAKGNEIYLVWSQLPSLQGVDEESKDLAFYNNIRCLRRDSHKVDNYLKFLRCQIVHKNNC

Chain of myelin basic protein (P02687 whole entry): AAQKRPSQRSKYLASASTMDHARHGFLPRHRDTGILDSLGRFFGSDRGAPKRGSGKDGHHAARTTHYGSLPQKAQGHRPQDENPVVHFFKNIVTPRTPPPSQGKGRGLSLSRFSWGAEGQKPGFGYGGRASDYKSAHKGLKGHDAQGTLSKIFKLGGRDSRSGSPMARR

active γ-PAK (mode of activation not stated for this experiment)
32P incorporated (AAAASKR): 0 pmol/unit | 32P incorporated, % (AKRASAA = 100) (AAAASKR): 0% | Km (AARASAA): 1880 µM | Vmax (AARASAA): 2.27 pmol/min | Vmax/Km (pmol min^-1 mM^-1) (AARASAA): 1.2 | Km (AKAASAA): > 5000 µM | 32P incorporated (AKRASAA): 26.8 pmol/unit | 32P incorporated, % (AKRASAA = 100) (AKRASAA): 100% | Km (AKRASAA): 460 µM | Vmax/Km (pmol min^-1 mM^-1) (AKRASAA): 2.2 | 32P incorporated (AKRASEA): 18.3 pmol/unit | 32P incorporated, % (AKRASAA = 100) (AKRASEA): 68% | Km (AKRASEA): 1420 µM | Km relative to AKRASAA (AKRASEA): Glutamate in the -1 or +1 position increased the Km by ˜3-fold | Vmax (AKRASEA): 2.22 pmol/min | Vmax relative to AKRASAA (AKRASEA): >2-fold increase in the Vmax when glutamate was in the -4 or +1 position | Vmax/Km (pmol min^-1 mM^-1) (AKRASEA): 1.6 | Vmax/Km relative to AKRASAA (AKRASEA): 0.7-fold when glutamate was in the +1 position of AKRASEA | Km (AKRASGA): 2090 µM | Km relative to AKRASAA (AKRASGA): increased the Km by 4-fold and the Vmax by 3-fold | Vmax (AKRASGA): 3.49 pmol/min | Vmax relative to AKRASAA (AKRASGA): increased the Km by 4-fold and the Vmax by 3-fold | Vmax/Km (pmol min^-1 mM^-1) (AKRASGA): 1.7 | Km (AKRASPA): > 5000 µM | 32P incorporated (AKRESAA): 47.2 pmol/unit | 32P incorporated, % (AKRASAA = 100) (AKRESAA): 176% | Km (AKRESAA): 1350 µM | Km relative to AKRASAA (AKRESAA): Glutamate in the -1 or +1 position increased the Km by ˜3-fold | Vmax (AKRESAA): 6.62 pmol/min | Vmax relative to AKRASAA (AKRESAA): 6-fold higher than with AKRASAA | Vmax/Km (pmol min^-1 mM^-1) (AKRESAA): 4.9 | Vmax/Km relative to AKRASAA (AKRESAA): an increase in the overall rate (Vmax/Km) of ˜2.2-fold | Km (AKRGSAA): 3520 µM | Km relative to AKRASAA (AKRGSAA): increased the Km by 7-fold over that of the peptide containing alanine at that position | Vmax (AKRGSAA): 6.44 pmol/min | Vmax relative to AKRASAA (AKRGSAA): the Vmax was increased by 6-fold | Vmax/Km (pmol min^-1 mM^-1) (AKRGSAA): 1.8 | Km (AKRKSAA): 480 µM | Vmax (AKRKSAA): 2.34 pmol/min | Vmax/Km (pmol min^-1 mM^-1) (AKRKSAA): 4.8 | Vmax/Km relative to AKRASAA (AKRKSAA): ˜2 fold higher than that of AKRASAA | 32P incorporated (AKRPSAA): 1.2 pmol/unit | 32P incorporated, % (AKRASAA = 100) (AKRPSAA): 5% | Km (AKRPSAA): > 5000 µM | rate of phosphorylation relative to ARRASVA (ARAASVA): phosphorylated at a slower rate (40%) compared to ARRASVA (SEQ ID NO:17) (100%) | 32P incorporated (ARKASAA): 0.9 pmol/unit | 32P incorporated, % (AKRASAA = 100) (ARKASAA): 3% | Km (ARKASAA): > 5000 µM | 32P incorporated (ARRASAA): 25 pmol/unit | 32P incorporated, % (AKRASAA = 100) (ARRASAA): 93% | Km (ARRASAA): 650 µM | Vmax (ARRASAA): 2.11 pmol/min | Vmax/Km (pmol min^-1 mM^-1) (ARRASAA): 3.2 | rate of phosphorylation (reference) (ARRASVA): ARRASVA (SEQ ID NO:17) (100%) | 32P incorporated (EKRASAA): 30.2 pmol/unit | 32P incorporated, % (AKRASAA = 100) (EKRASAA): 113% | Km (EKRASAA): 890 µM | Km relative to AKRASAA (EKRASAA): the Km was increased by 2-fold when glutamate was in the -4 position | Vmax (EKRASAA): 2.48 pmol/min | Vmax relative to AKRASAA (EKRASAA): >2-fold increase in the Vmax when glutamate was in the -4 or +1 position | Vmax/Km (pmol min^-1 mM^-1) (EKRASAA): 2.8 | Vmax/Km relative to AKRASAA (EKRASAA): 1.3-fold with glutamate in the -4 position | Km (KKRASAA): 370 µM | Vmax (KKRASAA): 1.59 pmol/min | Vmax/Km (pmol min^-1 mM^-1) (KKRASAA): 4.3 | Vmax/Km relative to AKRASAA (KKRASAA): ˜2 fold higher than that of AKRASAA | 32P incorporated (KKRKSAA): 19.2 pmol/unit | 32P incorporated, % (AKRASAA = 100) (KKRKSAA): 72% | Km (KKRKSAA): 610 µM | Vmax (KKRKSAA): 1.84 pmol/min | Vmax/Km (pmol min^-1 mM^-1) (KKRKSAA): 3 | 32P incorporated (PKRASAA): 40.5 pmol/unit | 32P incorporated, % (AKRASAA = 100) (PKRASAA): 151% | Km (PKRASAA): 240 µM | Km relative to AKRASAA (PKRASAA): decreased the Km by ≈2-fold as compared to AKRASAA | Vmax (PKRASAA): 1.1 pmol/min | Vmax/Km (pmol min^-1 mM^-1) (PKRASAA): 4.6 | phosphorylation rate (Vmax/Km) relative to AKRASAA (PKRASAA): an overall effect of a 2-fold increase in the phosphorylation rate | 32P incorporated (RKKKSAA): 0.1 pmol/unit | 32P incorporated, % (AKRASAA = 100) (RKKKSAA): 0% | substrate or not (casein): Proteins that are not substrates for γ-PAK, such as casein, histone 1, cdc42, and rac1 (data not shown) | substrate or not (cdc42): Proteins that are not substrates for γ-PAK, such as casein, histone 1, cdc42, and rac1 (data not shown) | 32P incorporated (histone 1): 0 pmol | rel rate (%) (histone 2B = 100) (histone 1): 0% | 32P incorporated (histone 2B): 11 pmol | rel rate (%) (histone 2B = 100) (histone 2B): 100% | 32P incorporated (histone 4): 8.3 pmol | rel rate (%) (histone 2B = 100) (histone 4): 74% | 32P incorporated (myelin basic protein): 4.2 pmol | rel rate (%) (histone 2B = 100) (myelin basic protein): 37% | 32P incorporated (protamine): 0 pmol | rel rate (%) (histone 2B = 100) (protamine): 0% | substrate or not (rac1): Proteins that are not substrates for γ-PAK, such as casein, histone 1, cdc42, and rac1 (data not shown) | 32P incorporated (rat prolactin): 1.8 pmol | rel rate (%) (histone 2B = 100) (rat prolactin): 17%

γ-PAK activated by limited digestion with trypsin
32P incorporated, proteolytically activated (pmol min^-1 µg^-1) (AAAASKR): 0 | rel rate (%), proteolytically activated (KKRKSAA = 100) (AAAASKR): 0% | 32P incorporated, proteolytically activated (pmol min^-1 µg^-1) (AAKKSAA): 0 | rel rate (%), proteolytically activated (KKRKSAA = 100) (AAKKSAA): 0% | 32P incorporated, proteolytically activated (pmol min^-1 µg^-1) (AAKRSAA): 0 | rel rate (%), proteolytically activated (KKRKSAA = 100) (AAKRSAA): 0% | 32P incorporated, proteolytically activated (pmol min^-1 µg^-1) (AARASAA): 169 | rate of phosphorylation relative to AKRASAA (AARASAA): significantly slower rate (40 and 56%) as compared to AKRASAA (SEQ ID NO:6) and KKRKSAA (SEQ ID NO:8), respectively | rel rate (%), proteolytically activated (KKRKSAA = 100) (AARASAA): 56% | 32P incorporated, proteolytically activated (pmol min^-1 µg^-1) (AKAASAA): 5 | rel rate (%), proteolytically activated (KKRKSAA = 100) (AKAASAA): 2% | 32P incorporated, proteolytically activated (pmol min^-1 µg^-1) (AKRASAA): 426 | rel rate (%), proteolytically activated (KKRKSAA = 100) (AKRASAA): 141% | 32P incorporated, proteolytically activated (pmol min^-1 µg^-1) (AKRASEA): 326 | rate of phosphorylation relative to AKRASAA (AKRASEA): a glutamate residue in the +1 position decreased the rate to 71% | rel rate (%), proteolytically activated (KKRKSAA = 100) (AKRASEA): 108% | 32P incorporated, proteolytically activated (pmol min^-1 µg^-1) (AKRASGA): 324 | rel rate (%), proteolytically activated (KKRKSAA = 100) (AKRASGA): 107% | 32P incorporated, proteolytically activated (pmol min^-1 µg^-1) (AKRASPA): 0 | rel rate (%), proteolytically activated (KKRKSAA = 100) (AKRASPA): 0% | 32P incorporated, proteolytically activated (pmol min^-1 µg^-1) (AKRESAA): 750 | rate of phosphorylation relative to AKRASAA (AKRESAA): increased the rate of phosphorylation relative to AKRASAA (SEQ ID NO:6) to 175 and 113%, respectively | rel rate (%), proteolytically activated (KKRKSAA = 100) (AKRESAA): 247% | 32P incorporated, proteolytically activated (pmol min^-1 µg^-1) (AKRGSAA): 381 | rel rate (%), proteolytically activated (KKRKSAA = 100) (AKRGSAA): 126% | 32P incorporated, proteolytically activated (pmol min^-1 µg^-1) (AKRKSAA): 548 | rel rate (%), proteolytically activated (KKRKSAA = 100) (AKRKSAA): 181% | 32P incorporated, proteolytically activated (pmol min^-1 µg^-1) (AKRPSAA): 16 | rel rate (%), proteolytically activated (KKRKSAA = 100) (AKRPSAA): 6% | 32P incorporated, proteolytically activated (pmol min^-1 µg^-1) (ARKASAA): 16 | rel rate (%), proteolytically activated (KKRKSAA = 100) (ARKASAA): 6% | 32P incorporated, proteolytically activated (pmol min^-1 µg^-1) (ARRASAA): 391 | rel rate (%), proteolytically activated (KKRKSAA = 100) (ARRASAA): 129% | 32P incorporated, proteolytically activated (pmol min^-1 µg^-1) (EKRASAA): 484 | rate of phosphorylation relative to AKRASAA (EKRASAA): increased the rate of phosphorylation relative to AKRASAA (SEQ ID NO:6) to 175 and 113%, respectively | rel rate (%), proteolytically activated (KKRKSAA = 100) (EKRASAA): 160% | 32P incorporated, proteolytically activated (pmol min^-1 µg^-1) (KKAASAA): 0 | rel rate (%), proteolytically activated (KKRKSAA = 100) (KKAASAA): 0% | 32P incorporated, proteolytically activated (pmol min^-1 µg^-1) (KKRASAA): 586 | rel rate (%), proteolytically activated (KKRKSAA = 100) (KKRASAA): 193% | 32P incorporated, proteolytically activated (pmol min^-1 µg^-1) (KKRKSAA): 302 | rel rate (%), proteolytically activated (KKRKSAA = 100) (KKRKSAA): 100% | 32P incorporated, proteolytically activated (pmol min^-1 µg^-1) (PKRASAA): 636 | rel rate (%), proteolytically activated (KKRKSAA = 100) (PKRASAA): 209% | 32P incorporated, proteolytically activated (pmol min^-1 µg^-1) (RKKKSAA): 0 | rel rate (%), proteolytically activated (KKRKSAA = 100) (RKKKSAA): 0%

Protein kinase C purified from bovine brain
32P incorporated (AAAASKR): 13.3 pmol/unit | 32P incorporated, % (AKRASAA = 100) (AAAASKR): 403% | 32P incorporated (AKRASAA): 3 pmol/unit | 32P incorporated, % (AKRASAA = 100) (AKRASAA): 100% | 32P incorporated (AKRASEA): 0.2 pmol/unit | 32P incorporated, % (AKRASAA = 100) (AKRASEA): 6% | 32P incorporated (AKRESAA): 0.4 pmol/unit | 32P incorporated, % (AKRASAA = 100) (AKRESAA): 12% | 32P incorporated (AKRPSAA): 3.9 pmol/unit | 32P incorporated, % (AKRASAA = 100) (AKRPSAA): 118% | 32P incorporated (ARKASAA): 5.7 pmol/unit | 32P incorporated, % (AKRASAA = 100) (ARKASAA): 173% | 32P incorporated (ARRASAA): 18.8 pmol/unit | 32P incorporated, % (AKRASAA = 100) (ARRASAA): 570% | 32P incorporated (EKRASAA): 0.1 pmol/unit | 32P incorporated, % (AKRASAA = 100) (EKRASAA): 3% | 32P incorporated (KKRKSAA): 11.1 pmol/unit | 32P incorporated, % (AKRASAA = 100) (KKRKSAA): 370% | 32P incorporated (PKRASAA): 8.7 pmol/unit | 32P incorporated, % (AKRASAA = 100) (PKRASAA): 264% | 32P incorporated (RKKKSAA): 3.1 pmol/unit | 32P incorporated, % (AKRASAA = 100) (RKKKSAA): 94%
